Target: the molecule itself
Experiment: native gel or EMSA; Native-PAGE, Novex 4-20% Tris-glycine native gel, 1 ug protein a lane, before and after freeze/thawing at -80 C

B1: human ATG16L1 coiled-coil domain construct 3 (CCD3-FLAG-6His), residues M126-A207 (domain or fragment, UniProt Q676U5-1 126-207, looked up)
chain: MNEAKIAECLQTISDLETECLDLRTKLCDLERANQTLKDEYDALQITFTALEGKLRKTTEENQELVTRWMAEKAQEANRLNA
notes: human ATG16L1 isoform 1 (NP_110430.5, full length M1-Y607), coiled-coil domain, residues M126-A207; amplified from pCMV-FLAG-ATG16L1; Expressed as GST-CCD3-FLAG-6His with a TEV site between GST and the insert; Calculated molecular weight printed as 11.3 kDa; also called CCD3FH; minimal coiled-coil domain; source: E. coli Rosetta 2, purified (glutathione sepharose, on column TEV cleavage, HIC); …
stoichiometry N: 2
